# According to patent publication US20250129143A1 (TOKYO METROPOLITAN INSTITUTE OF MEDICAL SCIENCE, published 2025):
# Assays:
# K33 = target: T1, K33 (human); experiment: immunoprecipitation from HCT-116 cell extract; quantitative mass spectrometry; pie chart [panel B]
# T1 construct: also called K33 chain; K33-linked ubiquitin chain
# Excerpt: (§1) FIG. 7 is a view showing the results of quantitative mass spectrometry analysis of immunoprecipitates. […] The immunoprecipitates subjected to FIG. 5C were electrophoresed, and high molecular weight regions (62 kDa or more) were subjected to quantitative mass spectrometry analysis. A stable isotope-labeled ubiquitin-derived peptide (name: EST) as an internal standard and 8 types of ubiquitin chain-derived peptides (names: K6, K11, K27, K29, K33, K48, K63, and M1) were used, and the quantification values (fmol) were described. Since the EST peptide sequence overlaps with the K63 chain peptide sequence, the total ubiquitin value was calculated by adding the value of the K63 chain-derived peptide to the quantitative value of the EST peptide. The total amount of ubiquitin contained in the ubiquitin monobody immunoprecipitates was confirmed to be higher than that of FK2 or P4D1. […] The value of the control is subtracted from the value of each antibody, a total value of the 8 types of ubiquitin chain-derived peptides is set at 100%, and the percentage of each ubiquitin chain is shown as a pie chart.
# (§2) The above-described immunoprecipitate was electrophoresed on 4%-12% NuPAGE Bis-Tris gels (Thermo Fisher Scientific) in MES buffer (Thermo Fisher Scientific) for about 2 cm, and was then stained with CBB (Bio-Safe Commassie, Bio-Rad). After the gel was washed with Milli-Q water, a gel of 62 kDa or more was cut out using a molecular weight marker as an indicator, and the gel was cut into 1 mm squares. The gel pieces were collected in an Eppendorf tube and were washed with 50 mM ammonium bicarbonate and 30% acetonitrile (ACN) for 2 hours, and then with 50 mM ammonium bicarbonate and 50% ACN for 1 hour, and were dehydrated in 100% ACN for 15 minutes. Subsequently, a trypsin solution (20 ng/ml Trypsin Gold, Promega, 50 mM ammonium bicarbonate, and 5% ACN) was added to the resultant, which was then digested at 37° C. overnight.
# K6 = target: T2, K6 (human); experiment: as above
# T2 construct: quantified through the peptide M[Oxid]QIFVK[di-GlyGly]TLTGK; also called K6 chain; K6-linked ubiquitin chain
# Excerpt: as §1, §2
# K11 = target: T3, K11 (human); experiment: as above
# T3 construct: also called K11 chain; K11-linked ubiquitin chain
# Excerpt: as §1, §2
# K27 = target: T4, K27 (human); experiment: as above
# T4 construct: also called K27 chain; K27-linked ubiquitin chain
# Excerpt: as §1, §2
# K63 = target: T5, K63 (human); experiment: as above
# T5 construct: also called K63 chain; K63-linked ubiquitin chain
# Excerpt: as §1, §2
# K48 = target: T6, K48 (human); experiment: as above
# T6 construct: quantified through the peptide LIFAGK[di-GlyGly]QLEDGR; also called K48 chain; K48-linked ubiquitin chain
# Excerpt: as §1, §2
# M1 = target: T7, M1 (human); experiment: as above
# T7 construct: quantified through the peptide GGM[Oxid]QIFVK; also called M1 chain; M1-linked ubiquitin chain
# Excerpt: as §1, §2
# K29 = target: T8, K29 (human); experiment: as above
# T8 construct: quantified through the peptide AK[di-GlyGly]IQDK; also called K29 chain; K29-linked ubiquitin chain
# Excerpt: as §1, §2
# [1] = target: T9, biotinylated ubiquitin (human-derived ubiquitin with C-terminal Cys residue and 6xHis tag, biotin on the Cys) (human, UniProt P0CG48 1-76, biotin tag (EZ-Link Maleimide-PEG11-Biotin) on the added C-terminal Cys residue); experiment: BLI; biotinylated ubiquitin on streptavidin sensor, Monobody-Nus-His6 as analyte
# T9 construct: mature; Construct pET21a-hUb-Cys-His6; also called hUb-Cys-His6; biotin-labeled ubiquitin monomer
Binder,percentage of this chain among the 8 ubiquitin chain-derived peptides in the immunoprecipitate (control subtracted) (K33) [%],percentage of this chain among the 8 ubiquitin chain-derived peptides in the immunoprecipitate (control subtracted) (K6) [%],percentage of this chain among the 8 ubiquitin chain-derived peptides in the immunoprecipitate (control subtracted) (K11) [%],percentage of this chain among the 8 ubiquitin chain-derived peptides in the immunoprecipitate (control subtracted) (K27) [%],percentage of this chain among the 8 ubiquitin chain-derived peptides in the immunoprecipitate (control subtracted) (K63) [%],percentage of this chain among the 8 ubiquitin chain-derived peptides in the immunoprecipitate (control subtracted) (K48) [%],percentage of this chain among the 8 ubiquitin chain-derived peptides in the immunoprecipitate (control subtracted) (M1) [%],percentage of this chain among the 8 ubiquitin chain-derived peptides in the immunoprecipitate (control subtracted) (K29) [%],Kd [1] [nM]
"Halo tag-fused anti-ubiquitin monobody (His6-Halo tag-TEV recognition sequence-GGGS-monobody, clone C) (designed binder, Immobilized on Magne HaloTag Beads; also called Ub monobody; Halo tag-fused monobody; not shown: Halo tag) HHHHHHGGGSLEVVEASPTSIQISWDAASFGFTHMDKVRYYRITYGETGGNSPVQEFTVPGSKSTATISGLKPGVDYTITVYAVTWYAYSYWGWPPISINYRT",0,4,6,0,19,61,0,10,
"anti-ubiquitin monobody clone A, Monobody-Nus tag-His6 recombinant protein (designed binder, Fibronectin type III monobody fused from the N-terminus to Nus tag and His6, made in E. coli; also called Ub monobody; not shown: Nus tag for solubilization) LEVVEASPTSIQISWDAYPYYIIGETVRYYRITYGETGGNSPVQEFTVPGSKSTATISGLKPGVDYTITVYAVTYYGNAFWGWPPISINYRTHHHHHH",,,,,,,,,1.1
"anti-ubiquitin monobody clone E, Monobody-Nus tag-His6 recombinant protein (designed binder, Monobody, Nus tag and His6 fused from the N-terminus; also called Ub monobody; not shown: Nus tag for solubilization) LEVVEASPTSIQISWDANIYSVGQGEYVRYYRITYGETGGNSPVQEFTVPGSKSTATISGLKPGVDYTITVYAVTEYSYMYWGWPPISINYRTHHHHHH",,,,,,,,,1.2
